Data published in patent publication US20250000991A1, “NECTIN-4 ANTIBODIES AND ANTIBODY-DRUG CONJUGATES” (Eli Lilly and Company, priority 2023, published 2025).

Key:
[1] = molecular target: human Nectin-4-eGFP on T24 cells (clone 3) (human) (UniProt Q96NY8); experiment: cell-based or functional assay
[2] = molecular target: human nectin-4 on cells (human) (UniProt Q96NY8); experiment: cell-based or functional assay

B1: enfortumab ADC (enfortumab conjugated as in Formula XI, DAR of 8) (antibody, INN chains, looked up, V domains shown)
VH: EVQLVESGGGLVQPGGSLRLSCAASGFTFSSYNMNWVRQAPGKGLEWVSYISSSSSTIYYADSVKGRFTISRDNAKNSLSLQMNSLRDEDTAVYYCARAYYYGMDVWGQGTTVTVSS
VL: DIQMTQSPSSVSASVGDRVTITCRASQGISGWLAWYQQKPGKAPKFLIYAASTLQSGVPSRFSGSGSGTDFTLTISSLQPEDFATYYCQQANSFPPTFGGGTKVEIKR
modifications: drug conjugate Formula XI, DAR 8
B1 showed a % activity (max GFP signal loss compared to enfortumab mAb (100%)) [1] of 120%, an EC50 (nM) of nectin-4-eGFP signal loss [1] of 2.55 nM and a Cytotoxicity IC50, NCI H1781 cells [2] of 0.0409 nM. For the same binder, the Cytotoxicity IC50, T24 Nectin-4 clone 108 cells [2] was 0.0747 nM.
